Assay [1] addresses T1, N1-Src (Rattus norvegicus, UniProt Q9WUD9). In words: co-immunoprecipitation of N1-Src-FLAG and CFP-PDN1 from COS7 cells. It counts as binding. Conditions: COS7 cells co-transfected with N1-Src-FLAG, lysed after 48 h; anti-FLAG IP, anti-GFP detection. Further details: His; made in house; host or cells: E. coli.
For assay [2], the target named is T1, N1-Src. Briefly: morphology of COS7 cells transfected with N1-Src-FLAG. The conditions noted are these: for effect on N1-Src-induced shrinkage of the cell soma (cell area) / effect on number of neurites (processes) per cell: COS7, co-transfection with N1-Src-FLAG 48 h, mean, n = 3 experiments, one way ANOVA. It counts as cell-based. The method, then:
(§1) Previous studies have shown that soluble SH3 ligands can enhance Src family kinase activity in vitro[20][21]. […] This experiment raised the possibility that PDN1 could act as an N1-Src inhibitor in cells. […] We observed that COS7 cells transfected with N1-Src-FLAG underwent a striking change in morphology within 48 h (Fig. 3a). Similar to that previously observed in Xenopus epithelial cells, overexpression of the kinase induced the growth of neurite-like processes (Fig. 3b) and an approximate 35% reduction in area of the cell soma (Fig. 3c). […] Using cell morphology as a readout, we assessed the effect of CFP-PDN1 and PDN1(P5A) on N1-Src activity in cells. […] Furthermore, the peptides had no significant effect upon the morphology of C-Src transfected cells. We also assessed the effect of PDN1 on N2-Src expressing cells because the first five amino acids of its SH3 insert are identical to that in N1-Src[3].
Figure 3 CFP-PDN1 inhibits the biological activity of N1-Src in cells. (a) COS7 cells were transfected for 48 h with empty plasmid (FLAG), C-, N1- or N2-Src-FLAG in combination with CFP, CFP-PDN1 or CFP-PDN1(P5A) and processed for immunofluorescence (green = CFP, red = Src-FLAG). Scale bar = 10 μm. Twenty representative fields of view (~50 cells) per condition in each experiment were analysed to quantify (b) number of processes per cell and (c). Data were plotted as mean ± SEM (n = 3 experiments). Statistical analysis was performed by one way ANOVA and post-hoc Tukey test (*P < 0.05; ***P < 0.001; n.s = not significant).
COS7 cells were plated at a density of 3 × 10^4 cells per well of a 24 well plate or 10^5 cells per well of a 6 well plate and transfected using EcoTransfect 24 h after plating according to the manufacturer’s instructions (Oz Biosciences, Marseille, France). Rat cerebellar granule and hippocampal neurons were prepared as previously described[40][41] and approved by the Biology Ethics Committee, University of York. The animals were euthanised according to Schedule 1 of the UK Home Office Animals (Scientific Procedures) Act. Neurons were plated at a density of 2.5 × 10^5 cells per coverslip and transfected after 24 h using a calcium phosphate kit (Promega, Southampton, UK) or Lipofectamine2000 (Invitrogen, Paisley UK) according to the manufacturer’s instructions. Following transfection the medium was replaced with MEM culture medium with 10 μM arabinofuranosyl cytidine for the indicated time before fixing for staining and morphological analysis. For L1-CAM assays, a 10 μl droplet containing 25 μg/ml L1-CAM extracellular domain (R&D Systems) and 1 mg/ml fluorescein isothiocyanate (FITC) was spotted onto the centre of a poly-D-lysine coated coverslip and air dried for 1 h prior to plating neurons.
Analysis of COS7 cell area was performed with ImageJ software. The NeuronJ plugin[43] was used for the quantification of process length and branching in both COS7 cells and neurons. Where appropriate, statistical analyses of the data were performed with SigmaPlot software using one way ANOVA or Kruskal-Wallis tests with post-hoc pairwise comparisons by Tukey or Dunn tests respectively.

Assay [3] relates to cerebellar granule neurons. In words: L1-CAM-dependent neurite elongation in cultured cerebellar granule neurons. It counts as cell-based, rat. Conditions: n = 3 experiments. The text has this: A previous study of Src^−/− mice provided a possible mechanism for the effects of N1-Src upon neurite development. […] Src^−/− mice lack C-, N1- and N2-Src, but the isoform responsible for the impaired neurite outgrowth on L1-CAM was not identified in the study. We therefore investigated whether PDN1 affects L1-CAM-dependent neurite growth in cultured CGNs. Recombinant L1-CAM extracellular domain mixed with the fluorescent dye FITC were spotted in the centre of poly-D-lysine (polyLys) coated glass coverslips (Fig. 6a). CGNs were then plated over the whole surface of the coverslip, allowing a direct comparison between neurons growing on L1-CAM and polyLys.
Figure 6 PDN1 inhibits neurite elongation mediated by L1-CAM. (a) Schematic of the poly-D-lysine (polyLys) coated coverslips treated with a droplet of L1-CAM and FITC. […] (b) Cultured cerebellar granule neurons transfected with CFP were grown on the indicated concentrations of L1-CAM and the length of the longest neurite (axon) determined. (c,d) CGNs were plated on polyLys coated coverslips with a region of […] L1-CAM (see a) and transfected after 24 h with CFP (control) or CFP-PDN1 for 48 h prior to fixing and processing for fluorescence microscopy. Length of longest neurite (c) and branches on the longest neurite (d) were quantified for neurons in the polyLys or L1-CAM regions using the NeuronJ plugin for ImageJ. All data were plotted as mean ± SEM, n = 3 experiments with 30 cells analysed per condition for each experiment. Statistical analysis was performed by one way ANOVA and post-hoc Tukey test (*P < 0.05; **P < 0.01; n.s = not significant).
Using a concentration of 25 μg/ml L1-CAM, which induced a 50% increase in neurite length, we then determined the effect of CFP-PDN1 transfection on neurite length on L1-CAM or polyLys. […]
(§2) Analysis of COS7 cell area was performed with ImageJ software. The NeuronJ plugin[43] was used for the quantification of process length and branching in both COS7 cells and neurons. […]

In assay [4] the test system is cerebellar granule neurons. Briefly: neurite outgrowth of cultured cerebellar granule neurons (polyLys). The conditions noted are these: n = 3 experiments, 30 cells per condition. It counts as cell-based, rat. The method, then:
We next took advantage of the specificity of PDN1 to investigate the role of endogenous N1-Src in neurite outgrowth in cultured neurons. CFP-PDN1 or -PDN1(P5A) was transfected into 1 DIV CGNs and their morphology analysed after […]. During CGN development in vivo and immediately after plating in vitro, the cells grow two processes before polarising to yield a single axon and the second process retracts to become a dendrite and further dendrites are initiated. The axon then extends further before bifurcating. […] To further confirm that N1-Src regulates neurite growth we employed an shRNA expressing plasmid (pSUPER-GFP) to knockdown N1-Src in neurons. […] The successful N1-Src shRNA plasmid was transfected into hippocampal neurons, and the length of the longest neurite in GFP-positive neurons was assessed at 48 h and 96 h post-transfection. […] Thus, perturbing N1-Src activity with PDN1 or knockdown of the protein produces the same neurite phenotype in primary neuronal cultures.
Figure 4 PDN1 inhibits neurite growth in cultured neurons. (a) Cultured cerebellar granule neurons were transfected 24 h after plating with CFP, CFP-PDN1 or CFP-PDN1(P5A) for 48 h prior to fixing and processing for immunofluorescence. Scale bar = 10 μm. (b,c) Length of longest neurite and branches per longest neurite were quantified using the NeuronJ plugin for ImageJ. Data were plotted as mean ± SEM, n = 3 experiments with 30 cells analysed per condition for each experiment. Statistical analysis was performed by one way ANOVA and post-hoc Tukey test (*P < 0.05; ***P < 0.001; n.s = not significant).
COS7 cells were plated at a density of 3 × 10^4 cells per well of a 24 well plate or 10^5 cells per well of a 6 well plate and transfected using EcoTransfect 24 h after plating according to the manufacturer’s instructions (Oz Biosciences, Marseille, France). […]
as §2

For assay [5], the system named is N2-Src. In words: morphology of COS7 cells transfected with N2-Src-FLAG. It counts as cell-based. Conditions: COS7, co-transfection with N2-Src-FLAG 48 h; n = 3 experiments. The method, then: as §1
Figure 3 CFP-PDN1 inhibits the biological activity of N1-Src in cells. […] Twenty representative fields of view (~50 cells) per condition in each experiment were analysed to quantify (b) number of processes per cell and (c). […]
as §2

Assay [6] concerns the target T1, N1-Src. Briefly: inhibition of N1-Src phosphorylation of GST-Y by free soluble peptide. Conditions: free soluble peptide titrated with 5 nM N1-Src and GST-Y; phosphotyrosine immunoblot densitometry; n = 3. Further details: His; made in house; host or cells: E. coli. It counts as biochemical. The method, then:
Previous studies have shown that soluble SH3 ligands can enhance Src family kinase activity in vitro[20][21]. […] This experiment raised the possibility that PDN1 could act as an N1-Src inhibitor in cells. […] We observed that COS7 cells transfected with N1-Src-FLAG underwent a striking change in morphology within 48 h (Fig. 3a). Similar to that previously observed in Xenopus epithelial cells, overexpression of the kinase induced the growth of neurite-like processes (Fig. 3b) and an approximate 35% reduction in area of the cell soma (Fig. 3c). […] Using cell morphology as a readout, we assessed the effect of CFP-PDN1 and PDN1(P5A) on N1-Src activity in cells. […] We also assessed the effect of PDN1 on N2-Src expressing cells because the first five amino acids of its SH3 insert are identical to that in N1-Src[3].
Figure 2 PDN1 inhibits N1-Src activity in vitro. GST-Y was incubated with 5 nM N1-Src and the indicated concentrations of either PDN1 or PDN1(P5A) and the extent of phosphorylation determined by densitometry of phosphotyrosine immunoreactivity. […]
Phosphorylation reactions were performed as previously described, prepared in kinase reaction buffer (100 mM Tris, 10 mM MgCl2, pH 7.5) and initiated by the addition of pre-warmed ATP (0.5 mM final concentration) and incubated at 30 °C for the indicated times. […] Due to the non-quantitative measurement of V, Vmax was not determined. […]
(In general: In western blotting, separated proteins are transferred to a membrane and probed.)

[7] abbreviates: CGNs transfected with CFP fusions, one way ANOVA.

No end group written: not given here.

“CFP-PDN1(P5A): PDN1(P5A) mutant fused to CFP, expressed in transfected cells (WHRMAAYTAKYP; also: fused to CFP, end not given here)”: in assay [1], the “binding to N1-Src in cells (co-immunoprecipitation)” value is reported as “greatly reduced”. Besides, in assay [2], the “effect on N1-Src-induced shrinkage of the cell soma (cell area)” value is given as “no significant effect on either parameter” and the “effect on number of neurites (processes) per cell” value is recorded as “no significant effect on either parameter”.
As to “CFP-PDN1: PDN1 fused to CFP, expressed in transfected cells (WHRMPAYTAKYP; also: fused to CFP, end not given here)”, the “length of longest neurite on L1-CAM compared with polyLys” value in assay [3] (CFP-PDN1 transfected CGNs on L1-CAM (25 μg/ml in text), 48 h, 30 cells per condition) is recorded as “not significantly different to that on polyLys”. For the same molecule, the “binding to N1-Src in cells (co-immunoprecipitation)” value in assay [1] is reported as “can bind N1-Src in cells”. Besides, the “inhibition of mean length of longest neurite on polyLys” value in assay [4] (CGNs grown on polyLys, transfected 24 h after plating, 48 h) is recorded as “approximately 40%”. Moreover, in assay [4] (setting [7]), the “branches per longest neurite” value was “longest neurite branching was inhibited” and the “length of longest neurite” value was “reduced in length”. Moreover, in assay [2], the “effect on N1-Src-induced shrinkage of the cell soma (cell area)” value is listed as “prevented both the shrinkage of the cell soma” and the “effect on number of neurites (processes) per cell” value was “reduced the number of neurites per cell”. Further, the “selectivity for N1-Src in cells” value in assay [2] (COS7, compared with C-Src and N2-Src) was “selective for the N1-Src splice variant in cells”. Moreover, the “rescue of morphology of N2-Src transfected cells” value in assay [5] was “did not rescue wild type morphology”.
Consider “PDN1(P5A): PDN1(P5A) mutant peptide (WHRMAAYTAKYP)”, for which, in assay [6], the “inhibition of GST-Y phosphorylation” value is “no significant inhibition”.

B1: L1-CAM: Recombinant L1-CAM extracellular domain (R&D Systems) (protein, UniProt P32004 20-1120, looked up)
extracellular domain: IQIPEEYEGHHVMEPPVITEQSPRRLVVFPTDDISLKCEASGKPEVQFRWTRDGVHFKPKEELGVTVYQSPHSGSFTITGNNSNFAQRFQGIYRCFASNKLGTAMSHEIRLMAEGAPKWPKETVKPVEVEEGESVVLPCNPPPSAEPLRIYWMNSKILHIKQDERVTMGQNGNLYFANVLTSDNHSDYICHAHFPGTRTIIQKEPIDLRVKATNSMIDRKPRLLFPTNSSSHLVALQGQPLVLECIAEGFPTPTIKWLRPSGPMPADRVTYQNHNKTLQLLKVGEEDDGEYRCLAENSLGSARHAYYVTVEAAPYWLHKPQSHLYGPGETARLDCQVQGRPQPEVTWRINGIPVEELAKDQKYRIQRGALILSNVQPSDTMVTQCEARNRHGLLLANAYIYVVQLPAKILTADNQTYMAVQGSTAYLLCKAFGAPVPSVQWLDEDGTTVLQDERFFPYANGTLGIRDLQANDTGRYFCLAANDQNNVTIMANLKVKDATQITQGPRSTIEKKGSRVTFTCQASFDPSLQPSITWRGDGRDLQELGDSDKYFIEDGRLVIHSLDYSDQGNYSCVASTELDVVESRAQLLVVGSPGPVPRLVLSDLHLLTQSQVRVSWSPAEDHNAPIEKYDIEFEDKEMAPEKWYSLGKVPGNQTSTTLKLSPYVHYTFRVTAINKYGPGEPSPVSETVVTPEAAPEKNPVDVKGEGNETTNMVITWKPLRWMDWNAPQVQYRVQWRPQGTRGPWQEQIVSDPFLVVSNTSTFVPYEIKVQAVNSQGKGPEPQVTIGYSGEDYPQAIPELEGIEILNSSAVLVKWRPVDLAQVKGHLRGYNVTYWREGSQRKHSKRHIHKDHVVVPANTTSVILSGLRPYSSYHLEVQAFNGRGSGPASEFTFSTPEGVPGHPEALHLECQSNTSLLLRWQPPLSHNGVLTGYVLSYHPLDEGGKGQLSFNLRDPELRTHNLTDLSPHLRYRFQLQATTKEGPGEAIVREGGTMALSGISDFGNISATAGENYSVVSWVPKEGQCNFRFHILFKALGEEKGGASLSPQYVSYNQSSYTQWDLQPDTDYEIHLFKERMFRHQMAVKTNGTGRVRLPPAGFATE
modifications: extracellular domain
Turning to B1, the “increase in neurite length by L1-CAM” value in assay [3] (25 μg/ml L1-CAM coating, CFP-transfected CGNs) is 50%. Besides, in assay [3] (CFP-transfected CGNs on indicated L1-CAM concentrations), the “neurite outgrowth on L1-CAM” value is “increases neurite outgrowth in a dose dependent manner”.

(Values after publication PMC5318895, “Inhibition of N1-Src kinase by a specific SH3 peptide ligand reveals a role for N1-Src in neurite elongation by L1-CAM” (Scientific Reports, 2017).)
